{"source": "paper PMC4500170", "data": [{"system": "Cc1cc(O)cc2c(C(=O)O)c(O)ccc12", "experiment": "purified protein", "settings": "2.5 mM SAM, 100 mM phosphate pH 6.5, 25 °C, 10 μM enzyme", "units": {"Km": "µM", "kcat": "s⁻¹"}, "values": [{"substance": "NcsB1 (Streptomyces carzinostaticus; R11A)", "Km": "419 ± 61", "kcat": "0.0207 ± 0.001"}, {"substance": "NcsB1 (Streptomyces carzinostaticus; R11K)", "Km": "319 ± 40", "kcat": "0.0197 ± 0.000833"}, {"substance": "NcsB1 (Streptomyces carzinostaticus; R11W)", "Km": "400 ± 68", "kcat": "0.01 ± 0.0005"}, {"substance": "NcsB1 (Streptomyces carzinostaticus; Y293I)", "Km": "649 ± 9", "kcat": "0.0127 ± 0.000667"}]}]}
